Literature values in PMC4086743 (Amino acids, 2012).

B1: HD5: human Paneth cell α-defensin HD5 (peptide, UniProt Q01523 20-94, looked up)
Defensin alpha 5: ESLQERADEATTQKQSGEDNQDLAISFAGNGLSALRTSGSQARATCYCRTGRCATRESLSGVCEISGRLYRLCCR
modifications: Defensin-5
B2: proCrp4: full-length precursor of Crp4 with electronegative proregion, recombinant (protein, UniProt P28311 20-92, looked up)
pro-form: DPIQNTDEETKTEEQPGEEDQAVSISFGGQEGSALHEKSLRGLLCYCRKGHCKRGERVRGTCGIRFLYCCPRR
modifications: pro-form

Key:
[1] = system: chymotrypsin
[2] = system: trypsin
[3] = system: MMP7

| Molecule | sensitivity to chymotrypsin [1] | sensitivity to trypsin [2] | resistance to proteolysis by MMP7 [3] |
| --- | --- | --- | --- |
| B1 | insensitive | insensitive | – |
| B2 | – | – | completely resistant |
